Tested on: MS2 coat protein
Experiment: apparent KD of MS2 coat protein; designed switch direction (-1 OFF switch, 1 ON switch): -1; higher = weaker reporter binding
Outline: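 Apparent KD, taken as the median over clusters for each design, was obtained by curve-fitting normalised cluster fluorescence. Designed RNA switches had been transcribed on Illumina chips by stalled E. coli RNA polymerase and titrated with SNAP-549-labelled MS2 coat protein, doubling from 0.7 or 1.5 nM to 3 µM.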

[1] = Eterna round: R95, input ligand: microRNA oligo, concentration not stated
[2] = Eterna round: R95, input ligand: FMN 200 uM
[3] = Eterna round: R95, input ligand: none
[4] = input ligand: microRNA oligo, concentration not stated

Row | Sequence | apparent KD of MS2 coat protein [1] [nM] | apparent KD of MS2 coat protein (input ligand: FMN 200 uM) [nM] | apparent KD of MS2 coat protein (input ligand: none) [nM] | apparent KD of MS2 coat protein [2] [nM] | apparent KD of MS2 coat protein [3] [nM] | apparent KD of MS2 coat protein [4] [nM]
1 | GUUAAGGUAGGAUAUACGAUAAUAUAGGGUAGAUAUAGAACACAUGAGGAUCACCCAUGUAGAAGGACCAAUUG [Mat - Exclusion 2 - Mod of my Tesla design - D54] (puzzle: Exclusion 2) | 28.6 | – | – | – | – | –
2 | UUUUAACAUGAGGAUCACCCAUGUGAGGAUAUCGAAAUUUAUAUUAAUAUUUAUUUAACGAGAAGGCACAUUUU [JMF 63] (puzzle: Exclusion 1) | 93.2 | – | – | – | – | –
3 | GUCGAGUGAGGAUAUGGUGAGUAGUGCCAGAGCGCUGCUCACCAGAAGGCACAUGAGGAUCACCCAUGUAUAGC [Mat - Exclusion 4 - Mod of JL - D13] (puzzle: Exclusion 4) | 15.2 | – | – | – | – | –
4 | CCAAGCUUGUUCAUUAACCACAUGAGGAUCACCCAUGUCUUGGCAAUUAUGACUUGCCCGUCAGGUGCUCGUCUUAU [Sensor-V1 #35] (Eterna round: R97, puzzle: Sensor, turn-off variant 1) | – | 65.5 | 71.3 | – | – | –
5 | CAUGUCCGAGGAUAUAUUAUGUGAAACAUGAGGAUCACCCAUGUUAUAUGAUGGAUGUAAAUAGAAGGCGGACGUG [Mat - Exclusion 5 - JL mod - D65] (puzzle: Exclusion 5) | 31.6 | – | – | 26.3 | 34.5 | –
6 | AAAUAAUAGAUAAAAUAAAACAUGAGGAUCACCCAUGUGGGAAGAUGAGGGUGAAACAAGCUUUUUGCUCGUCUUAU (puzzle: Sensor v3, turn-off variant 1) | 754 | – | – | 37.8 | 46.7 | –
7 | GGGAAGGGAGGAUAUGAGGGAGAGAACAUGAGGAUCACCCAUGUGAGACCUCAGGAUCGAUCAGAAGGCCCGAUCC [AK-MS2ROC-r4-exclusion5-14] (Eterna round: R97, puzzle: Exclusion 5) | – | 677 | 383 | – | – | –
8 | AGUUGCGCAGGAUAUACAUGAGGAUCACCCAUGUGAGAGAAAUAAGUGAGGAAGAAAAGUAGAAGGGCGUGACG [Mat - Exclusion 3 - Mod of Salish D73] (puzzle: Exclusion 3) | 53.8 | – | – | 281 | 57.3 | –
9 | UGUUGUCGCGUAGGAUAUGUAUGAGGAUCACCCAUUAAUAAAUUUUAACCACGAGGAUCACCCGUGUAGAAGGACGGGACAACA [pwkr exNG2 2xF5 1xFMN.16] (Eterna round: R96, puzzle: Exclusion NG 2) | – | 37.9 | 30.6 | – | – | 18.1
10 | GAAGCACAUGAGGAUCACCCAUGUGAGGAUAUCCGUCUGGUCCGGCCGGACCAGUACCGGAGAAGGCGCGUAAA [Excls1-Ia] (puzzle: Exclusion 1) | 40.1 | – | – | – | – | –
11 | UGAUCACAUGAGGAUCACCCAUGUCAGGAUAUCGUCACUGGAGCUGCGGCUCCAGUGACGAGAAGGGACAUAAU [E1/3-A3] (Eterna round: R97, puzzle: Exclusion 1) | – | 50.8 | 242 | – | – | –
12 | AAGUAGACGGUGAGGAUAUAGGUGGAAUGACCCAUUUAGAAGGUACAUGAGGAUCACCCAUGUGGGUAACGUCG [Brourd's EX4 #28] (Eterna round: R97, puzzle: Brourd's mod of Exclusion 4) | – | 156 | 166 | – | – | –
13 | AAAAUAAACCUCAUUUAAAACAUGAGGAUCACCCAUGUAAAAUGCUCGUCUUAUUAAAUGUACUCCUAGUUCGUACA [My solution] (Eterna round: R97, puzzle: Sensor, turn-off variant 1) | – | 178 | 251 | – | – | –
14 | GCUUUUCUUUUCCUUUCUUACAUGAGGAUCACCCAUGUUUCUUGUCGUGCUCGCGUUGUUCGUCUGUCUGUCUGUUG [salish99_TOv1_r3_081] (puzzle: Sensor v3, turn-off variant 1) | 35.5 | – | – | 37.4 | 47.6 | –
15 | UUUAAUUUUUUUUUUUUACAAGCUUUUUGCUCGUCUUAUACAUGAGGAUCACCCAUGUAAGUGGAGGGUAAAUUAUC [JMF 87] (puzzle: Sensor v3, turn-off variant 2) | 39.4 | – | – | 19.4 | 15.2 | –
16 | CUGGGCGGAGGAUAUACAGGUUUAAUAUAAAUUAAAUUGGGACAUGAGGAUCACCCAUGUAGAAGGUUGUUUAG [-13.6, -11.8 kcal, 32% A] (Eterna round: R97, puzzle: Exclusion 2) | – | 23.4 | 22.1 | – | – | –
17 | GUUUUCAGACGGAGAUCCUACAUGAGGAUCACCCAUGUCUCUCUUGCUAAUUGCUCGUCUUUUCCUCCUCUGUUCUC [Elimod 35 - Jieux - Sensor, turn-off variant 1] (Eterna round: R97, puzzle: Sensor, turn-off variant 1) | – | 457 | 567 | – | – | –

Row | Sequence | apparent KD of MS2 coat protein [1] [nM] | apparent KD of MS2 coat protein (input ligand: FMN 200 uM) [nM] | apparent KD of MS2 coat protein (input ligand: none) [nM] | apparent KD of MS2 coat protein [2] [nM] | apparent KD of MS2 coat protein [3] [nM] | apparent KD of MS2 coat protein [4] [nM]
18 | AGGUGUAGAGGAUAUCGAGUCCUUUACAUGAGGAUCACCCAUGUCCUGGGCACCCAGGACCGAGAAGGCUACACCA [Omei Ex5 D32] (Eterna round: R97, puzzle: Exclusion 5) | – | 353 | 223 | – | – | –
19 | GUAACAUGCUGGUGAUCAUACAUGAGGAUCACCCAUGUAACAAGCUUUUUGUUCGUCUUAUAAGAUUACUAGUAUGU [Stov1/10-B2] (Eterna round: R97, puzzle: Sensor, turn-off variant 1) | – | 33 | 39.7 | – | – | –
20 | GAUUAUGCGAGCUUUAGGGACAUGAGGAUCACCCAUGUUCGUCUUAUUAAUCUAGGUGCGCUAACAUACCUAAAUCU [JMF 47] (puzzle: Sensor v3, turn-off variant 1) | 32 | – | – | 21.5 | 23.7 | –
21 | GUGAGACAUGAGGAUCACCCAUGUCAGGAUAUGAUACUAUGUACUUCGGUACAUAGUAUCAGAAGGGACAGUGA [Ex1-3: 5] (puzzle: Exclusion 1) | 42.5 | – | – | – | – | –
22 | GCGCAAACGCCAAAAGGCGAAACAACAUGAGGAUCACCCAUGUAGGAUAUCGAUUGCUUUGCAGUCGAGAAGGACGUAAUGCGC [JL ENG3 3.80 Mod 5] (Eterna round: R96, puzzle: Exclusion NG 3) | – | 12.7 | 22.1 | – | – | 14.9
23 | GCCCGUGGGCAAGGAUAUCCUACGCUGUUCUGGUUCGUGUCUGUCACAUGAGGAUCACCCAUGUGGGAGAAGGUGCAUUAGGGU [Design 54] (Eterna round: R96, puzzle: Exclusion NG 2) | – | 16.7 | 16.8 | – | – | 12.3
24 | CCCUAGGGAGGAUAUCCAAUAUAUGACAUGAGGAUCACCCAUGUUUCCACUCGUACCUCCGGAGAAGGCCCAUACC [Ex5 #10] (Eterna round: R97, puzzle: Exclusion 5) | – | 28 | 28.4 | – | – | –
25 | GUAGAGUCAGGAUAUACGAGAUCGAAAGAUCAGUGAUCCUUACAUGAGGAUCACCCAUGUAGAAGGGACUCUAC [Omei mod 8 to Eli's favorate candidate (ch.parushev)] (Eterna round: R97, puzzle: Exclusion 2) | – | 41.9 | 388 | – | – | –
26 | UUUUUAUAUGAAGGAUAUACUUAACAUGAGGAUCACCCAUGUGGUGUUGUGAGUGAGUGAGUUUAGUAGAAGGUCAAUUAUUUC [JMF's solution 17] (Eterna round: R96, puzzle: Exclusion NG 2) | – | 537 | 549 | – | – | 292
27 | GUGAUAUAGUUAGUGGCCUACAUGAGGAUCACCCAUGUGAGGGAAAUGUUGAGGCGAAAGUUGUGUGCUCGUCUGUA [JR_SV3TOV1_Sub039] (puzzle: Sensor v3, turn-off variant 1) | 38.9 | – | – | 23.6 | 26.5 | –
28 | UACAUGAGGAUCACCCAUGUUUUGUCGUGUAUGGUAUUUAUCUAGGAUAUCAAUGUAUUAAUUUAUGAGAAGGAGAAUAUUAAU [JMF's solution 44] (Eterna round: R96, puzzle: Exclusion NG 3) | – | 42 | 43.2 | – | – | 27.3
29 | GCUAGUCAUGUCAGGAUAUGCAGAUCCUUGGAUCUGCAGAAGGGACAUGAGGAUCACCCAUGUGCCUAACUAGC [Mat - Exclusion 4 - JL Mod - D14] (Eterna round: R97, puzzle: Brourd's mod of Exclusion 4) | – | 479 | 41.6 | – | – | –
30 | AAGAAACAUGAGGAUCACCCAUGUGAGGAUAUGACCAAGAAAAGAAAAGAAAGAAGAGUCAGAAGGCACAAAGG [salish99-ex1_r3_066] (puzzle: Exclusion 1) | 56.6 | – | – | 99.7 | 181 | –
31 | AUAAGUGAUAAGGAUAUCACUAGCCUCGGCUAGUGAGAAGGUAUCACAUGAGGAUCACCCAUGUGUUCCAAUAA [Ex6/7-A2] (Eterna round: R97, puzzle: Exclusion 6) | – | 1350 | 169 | – | – | –
32 | CAUAGUUACUCAGGAUAUCAUACAUGAGGAUCACCCAUGUAAUAAAUGAGAAUUUCGAAUGUAUAUGAGAAGGGAGAAAUCUAC [Ostracism 59 - Jieux - Exclusion NG 2] (Eterna round: R96, puzzle: Exclusion NG 2) | – | 69.2 | 22.6 | – | – | 13.4
33 | CGGCAUGUCUGAGGAUAUCUGCACGUUUAGUGCAGAGAAGGCAGAACAUGAGGAUCACCCAUGUAGAUCAUUAACCGAUUAAUU [ENG1/7-A2] (Eterna round: R96, puzzle: Exclusion NG 1) | – | – | – | – | – | 182
34 | AAGAAACAUGAGGAUCACCCAUGUGAGGAUAUGUAAAAUAAAAUAAAAUAAAUAAUAAACAGAAGGCACAAAGG [Mat - Mod of Hog D17] (puzzle: Exclusion 1) | 58.6 | – | – | – | – | –

Source: the supplement of paper PMC9170038
